The results in this text go back to paper PMC12547741, “DUF-721 and N-terminal extension of the helicase loader DciA bind ssDNA to promote replicative DnaB helicase loading in Caulobacter crescentus”.

In data set [1] the target is ccDnaB-His (wild type) (Caulobacter crescentus). Description: SEC; ccDnaB-His alone on Superdex 200; 25 mM Tris-HCl pH 7.5, 300 mM NaCl, 20% glycerol, 0.1 mM ATP, 5 mM MgCl2; fractions by SDS-PAGE; hexamer.
Another data set has as its target ccDnaB-His (wild type). Description: pull-down (Ni-conjugated magnetic beads), quantified from SDS-14% PAGE with Coomassie staining. The conditions noted are these: sfTq2-DciA 850 nM, three independent reactions per legend, parent: est. 1.4, read off a plot.
Data set [2] addresses T1, His-DciA WT (UniProt A0A0H3C5R2 1-179). As to the kind of experiment: EMSA; 50 mM K-glutamate; EMSA: 20 mM Tris-HCl pH 7.5, 10 mM Mg acetate, 50 or 150 mM K-glutamate, 0.1 mg/ml BSA, 10% glycerol, 2 mM ATP, 12.5 nM DNA, 5 min on ice; M13 pull-down: Tris pH 7.5, 10 mM Mg acetate, 50 mM K-glutamate, 0.1 mM ATP, 0.1 mg/ml BSA, 30 C. The settings on record: protein: recombinant; tags: N-terminal His6; label: 5'-FAM.

The target of data set [3] is T2, His-DciA R106A (UniProt A0A0H3C5R2 1-179, R106A). The description is as above. The conditions noted are these: protein: recombinant; tags: N-terminal His6; label: 5'-FAM.
T2 sequence (A0A0H3C5R2 entry or part of it R106A | R106A R106A): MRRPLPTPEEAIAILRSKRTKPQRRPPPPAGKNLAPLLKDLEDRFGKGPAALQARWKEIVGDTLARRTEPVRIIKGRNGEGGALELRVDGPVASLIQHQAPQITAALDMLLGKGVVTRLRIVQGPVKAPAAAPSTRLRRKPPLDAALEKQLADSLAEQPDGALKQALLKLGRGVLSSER
The target in the next data set is His-DciA 4A2S (UniProt A0A0H3C5R2 1-179, H98A;Q99A;Q102A;R106A;M109S;L110S). Description: EMSA; 150 mM K-glutamate; EMSA: 20 mM Tris-HCl pH 7.5, 10 mM Mg acetate, 50 or 150 mM K-glutamate, 0.1 mg/ml BSA, 10% glycerol, 2 mM ATP, 12.5 nM DNA, 5 min on ice; M13 pull-down: Tris pH 7.5, 10 mM Mg acetate, 50 mM K-glutamate, 0.1 mM ATP, 0.1 mg/ml BSA, 30 C. The conditions noted are these: protein: recombinant; tags: N-terminal His6; label: 5'-FAM.
Chain of His-DciA 4A2S (A0A0H3C5R2 entry or part of it H98A;Q99A;Q102A;R106A;M109S;L110S): as the sequence (A0A0H3C5R2 entry or part of it R106A | R106A R106A) above, with H98A, Q99A, Q102A, M109S, L110S counted along it

Data set [4] addresses His-DciA R106A L119S (RL) (UniProt A0A0H3C5R2 1-179, R106A;L119S). The data set is described as above. The conditions noted are these: protein: recombinant; tags: N-terminal His6; label: 5'-FAM.
The target of the next data set is His-DciA 4A (UniProt A0A0H3C5R2 1-179, H98A;Q99A;Q102A;R106A). The description is as above. The settings on record: protein: recombinant; tags: N-terminal His6; label: 5'-FAM.
Chain of His-DciA 4A (A0A0H3C5R2 entry or part of it H98A;Q99A;Q102A;R106A): as the sequence (A0A0H3C5R2 entry or part of it R106A | R106A R106A) above, with H98A, Q99A, Q102A counted along it
The target of a further data set is His-DciA del1-45 (UniProt A0A0H3C5R2 46-179, del1-45). The description is as above. The conditions noted are these: protein: recombinant; tags: N-terminal His6; label: 5'-FAM.
Chain of His-DciA del1-45 (A0A0H3C5R2 entry or part of it del1-45): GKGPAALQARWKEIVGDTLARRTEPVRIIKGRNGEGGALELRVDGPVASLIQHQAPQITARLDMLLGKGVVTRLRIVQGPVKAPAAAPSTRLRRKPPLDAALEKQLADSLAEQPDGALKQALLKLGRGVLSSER
In the next data set the target is His-DciA L119S (UniProt A0A0H3C5R2 1-179, L119S). The description is as above. The conditions noted are these: protein: recombinant; tags: N-terminal His6; label: 5'-FAM.
Chain of His-DciA L119S (A0A0H3C5R2 entry or part of it L119S | L119S L119S): as the sequence (A0A0H3C5R2 entry or part of it R106A | R106A R106A) above, with A106R, L119S counted along it
In data set [5] the target is T1, His-DciA WT. The data set is described as above. The settings on record: protein: recombinant; tags: N-terminal His6; label: 5'-FAM.
For data set [6], the target named is T2, His-DciA R106A. The data set is described as above. The settings on record: protein: recombinant; tags: N-terminal His6; label: 5'-FAM.

T1 sequence (A0A0H3C5R2 entry or part of it): as the sequence (A0A0H3C5R2 entry or part of it R106A | R106A R106A) above, with A106R counted along it
Chain of His-DciA R106A L119S (RL) (A0A0H3C5R2 entry or part of it R106A;L119S | R106A L119S R106A L119S): as the sequence (A0A0H3C5R2 entry or part of it R106A | R106A R106A) above, with L119S counted along it

For ccDnaB-His (wild type) (enzyme), the stoichiometry N in data set [1] turned out to be 6.

For the molecule “superfolder mTurquoise2 fluorescent protein-tagged DciA (sfTq2-DciA), wild type R106A”, the response in the data set with ccDnaB-His (wild type) came to 1.2 AU.

B1: 80-mer oligo 1790 (ssDNA)
DNA: TCCTTGTTATCCACAGGGCAGTTTTTTTTTTTTTTTTTTTTTTTTTTTTTTTTTTTTTTTTGTGCGATATAGTTCTCCGA
Regarding B1, the Kd with His-DciA WT [2] was determined as 49.7 ± 24.4 nM; in the data set with His-DciA R106A [3], 152 ± 75.4 nM; with His-DciA 4A2S it was 115 ± 40.3 nM; in data set [4], 115 ± 40.3 nM; in the data set with His-DciA 4A it was 115 ± 40.3 nM; with His-DciA del1-45, 115 ± 40.3 nM. The dissociation constant (Kd) came out at 115 ± 40.3 nM in the data set with His-DciA L119S, 25.4 ± 8.4 nM with His-DciA WT [5] and 115 ± 40.3 nM in the data set with His-DciA R106A [6].

For the molecule TTTTTTTTTTTTTTTTTTTTTTTTTTTTTTTTTTT (ssDNA) [35-mer oligo 2201], the dissociation constant Kd with His-DciA WT [2] came out at 19.6 ± 7.03 nM; with His-DciA R106A [3], 35.7 ± 17.6 nM; in [4], 665 ± 47.9 nM; with His-DciA del1-45 it was 520 ± 30.6 nM; with His-DciA WT [5], 109 ± 21 nM; with His-DciA R106A [6], 543 ± 9.95 nM.
